Assay results as given in patent publication US20100331262A1 (KAGOSHIMA UNIVERSITY, published 2010).

B1: pepB7-C15 (peptide)
peptide: CYGTKPWMC
notes: also called pepB6-C2, C5, C6, C7, C8, C9, C10, and C15; pepD1-C5, C7, and C20

The binders below were run against T1, B6 scFv (assay: phage panning and phage ELISA on coated scFv).
T1 construct: also called clone B6 of WO 2005/105998
T1 sequence (VH, as listed by the source, chain 1 of 2): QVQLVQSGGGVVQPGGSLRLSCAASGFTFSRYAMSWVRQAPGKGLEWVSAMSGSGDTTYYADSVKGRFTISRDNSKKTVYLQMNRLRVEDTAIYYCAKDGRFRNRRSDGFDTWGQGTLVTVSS
T1 sequence (VL, as listed by the source, chain 2 of 2): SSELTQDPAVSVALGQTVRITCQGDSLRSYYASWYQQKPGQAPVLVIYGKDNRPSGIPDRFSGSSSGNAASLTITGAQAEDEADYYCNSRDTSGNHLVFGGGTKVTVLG

Binder	binding result
GMLDIFAPIRHV [pepB6-L1]	binds
TSPILDVLTPPR [pepB6-L10]	binds

The binders below were run against T1, B6 scFv (assay: phage panning on coated scFv, clones confirmed by phage ELISA).

Binder	binding result
B1	binds

The binders below were run against T2, B7 scFv in the same assay as above.
T2 construct: also called clone B7 of WO 2005/105998
T2 sequence (VH, as listed by the source, chain 1 of 2): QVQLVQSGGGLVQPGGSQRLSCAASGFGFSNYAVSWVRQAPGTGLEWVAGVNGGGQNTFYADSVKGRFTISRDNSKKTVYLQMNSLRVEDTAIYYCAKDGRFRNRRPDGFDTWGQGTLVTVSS
T2 sequence (VL, as listed by the source, chain 2 of 2): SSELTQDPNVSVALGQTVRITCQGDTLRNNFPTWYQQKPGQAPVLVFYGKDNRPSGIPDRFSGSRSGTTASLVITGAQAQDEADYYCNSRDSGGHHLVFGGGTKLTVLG

Binder	binding result
B1	binds

The binders below were run against T3, D1 scFv in the same assay as above.
T3 construct: also called clone D1 of WO 2005/105998
T3 sequence (VH, as listed by the source, chain 1 of 2): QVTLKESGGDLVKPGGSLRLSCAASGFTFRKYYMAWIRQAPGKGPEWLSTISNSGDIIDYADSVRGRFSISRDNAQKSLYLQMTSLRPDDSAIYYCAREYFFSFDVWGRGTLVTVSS
T3 sequence (VL, as listed by the source, chain 2 of 2): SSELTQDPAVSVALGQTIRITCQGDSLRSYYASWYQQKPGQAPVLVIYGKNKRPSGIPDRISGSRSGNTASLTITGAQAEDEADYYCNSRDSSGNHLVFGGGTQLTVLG

Binder	binding result
CFGHEPWMC [pepD1-C18]	binds
CFGHKPWMC [pepD1-C11]	binds
NPLDFYAPSILP [pepD1-L20]	binds
GSPFLDLLAPAA (also called pepD1-L9; pepD1-L5, L9) [pepD1-L5]	binds
GNTLLDTLVPLI [pepD1-L13]	binds
SILDILSPRLAE [pepD1-L7]	binds
B1	binds
CYGTEPWMC (also called pepD1-C13; pepD1-C2, C13) [pepD1-C2]	binds
SSIIDILLPPIY [pepD1-L6]	binds
CFGRLPWMC [pepD1-C8]	binds
CFGSLPWMC [pepD1-C10]	binds
CQGHLPWMC [pepD1-C3]	binds

The binders below were run against T4, Aβ oligomers or Aβ fibers formed 1.5 hours after the dissolution of Aβ1-42 (UniProt P05067 672-713) (assay: precipitation with streptavidin-magnet beads, Western blot with anti-Aβ antibodies).
T4 construct: domain: Aβ1-42; Aggregated conformers of Aβ1-42 after 1.5 h at 40 µM in 20 mM phosphate buffer pH 7.0; The number of copies is not defined; also called Aβ conformers (Aβ oligomers and Aβ fibers)
T4 sequence (P05067 672-713 limits assumed): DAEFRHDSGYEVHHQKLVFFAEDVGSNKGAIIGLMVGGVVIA

Binder	binding result
GSGGGSCGYWRSEWGLCG (also called unrelated peptide) [unrelated control peptide (GSGGGSCGYWRSEWGLCG)]	no binding
